For the series, the system named is Escherichia coli TOP10. Kind of series: shrunken log2 fold change of peptide-encoding DNA abundance (4.5 h post-induction vs induction); higher = less antimicrobial activity (less host growth inhibition). The settings on record: time post-induction: 4.5 h; library: site-saturation at positions 5, 18, 19, 20.
For RRIRDRPPRLPRPRPRPVPGPRP, the “shrunken log2 fold change” value is 0.214.
As for RRIRGRPPRLPRPRPRPLQKPRP, the figure is 1.28.
As for RRIRVRPPRLPRPRPRPELYPRP, the figure is 0.0948.
As for RRIRWRPPRLPRPRPRPPRCPRP, the “shrunken log2 fold change” value is 0.483.
For RRIRSRPPRLPRPRPRPLKYPRP the value was -0.653.
For RRIRRRPPRLPRPRPRPWRTPRP the value was -0.0112; for RRIRCRPPRLPRPRPRPQARPRP, -0.421; for RRIRWRPPRLPRPRPRPMEFPRP, -0.145.
For RRIRGRPPRLPRPRPRPAYVPRP the value was -0.0723.
On to RRIRRRPPRLPRPRPRPKWIPRP, for which the “shrunken log2 fold change” value was -0.096.
For RRIRARPPRLPRPRPRPLHCPRP the value was 0.617.
For RRIRTRPPRLPRPRPRPKSAPRP, the “shrunken log2 fold change” value was determined as 0.221.
As for RRIRLRPPRLPRPRPRPTFLPRP, the figure is -0.153; as for RRIRTRPPRLPRPRPRPGFMPRP, -0.0526; as for RRIRYRPPRLPRPRPRPYYPPRP, -0.293.
For RRIRERPPRLPRPRPRPHFAPRP the value was -0.0634; for RRIRWRPPRLPRPRPRPNASPRP, 0.267.
As for RRIRNRPPRLPRPRPRPQTDPRP, the figure is -0.19; as for RRIRYRPPRLPRPRPRPVRIPRP, -0.053; as for RRIRSRPPRLPRPRPRPRIGPRP, 0.395.
In the case of RRIRDRPPRLPRPRPRPHKRPRP, the “shrunken log2 fold change” value is -0.0521.
For RRIRIRPPRLPRPRPRPEAHPRP the value was 0.0771; for RRIRDRPPRLPRPRPRPPIMPRP, 0.0621.
As for RRIRVRPPRLPRPRPRPQYRPRP, the figure is -0.134; as for RRIRGRPPRLPRPRPRPNLQPRP, 0.347; as for RRIRKRPPRLPRPRPRPLFKPRP, 0.11.
As for RRIRHRPPRLPRPRPRPDYYPRP, the figure is -0.622; as for RRIRPRPPRLPRPRPRPIMAPRP, -0.0956; as for RRIRSRPPRLPRPRPRPTMNPRP, -0.225.
Take RRIRWRPPRLPRPRPRPPSRPRP: the “shrunken log2 fold change” value was found to be 0.314.
As for RRIRTRPPRLPRPRPRPNRDPRP, the figure is -0.0614; as for RRIRHRPPRLPRPRPRPNFMPRP, -0.5; as for RRIRFRPPRLPRPRPRPTFMPRP, -0.444.
For RRIRRRPPRLPRPRPRPMCGPRP the value was -0.0233; for RRIRVRPPRLPRPRPRPMQEPRP, -0.0018.
For RRIRTRPPRLPRPRPRPEDVPRP the value was -0.0588.
RRIRQRPPRLPRPRPRPCPGPRP: the “shrunken log2 fold change” value was -0.0035.
For RRIRYRPPRLPRPRPRPFQGPRP the value was 0.0712; for RRIRCRPPRLPRPRPRPPQQPRP, 0.549.
Turning to RRIRFRPPRLPRPRPRPHNFPRP, the “shrunken log2 fold change” value was -0.399.
For RRIRHRPPRLPRPRPRPNKEPRP the value was 0.000399; for RRIRQRPPRLPRPRPRPHSSPRP, -0.271; for RRIRRRPPRLPRPRPRPKSIPRP, -0.0792.
As for RRIRTRPPRLPRPRPRPIIWPRP, the figure is -0.0836; as for RRIRVRPPRLPRPRPRPQSGPRP, -0.0607; as for RRIRLRPPRLPRPRPRPITAPRP, -0.0526.
As for RRIRVRPPRLPRPRPRPNIVPRP, the figure is 0.000276; as for RRIRYRPPRLPRPRPRPPVPPRP, 0.486; as for RRIRYRPPRLPRPRPRPEPKPRP, 0.0661.
For RRIRERPPRLPRPRPRPAPVPRP, the “shrunken log2 fold change” value was 0.055.
On to RRIRCRPPRLPRPRPRPWQTPRP, for which the “shrunken log2 fold change” value is -0.0433.
As for RRIRYRPPRLPRPRPRPPSRPRP, the figure is 0.232.
Regarding RRIRHRPPRLPRPRPRPAQDPRP, the “shrunken log2 fold change” value was 0.0349.
As for RRIRLRPPRLPRPRPRPYVVPRP, the figure is -0.481; as for RRIRPRPPRLPRPRPRPCFFPRP, -0.0762.
For the sequence RRIRKRPPRLPRPRPRPWCQPRP, the “shrunken log2 fold change” value was -0.0158.
As for RRIRMRPPRLPRPRPRPGQRPRP, the figure is 1.08; as for RRIRLRPPRLPRPRPRPKPWPRP, 0.387; as for RRIRRRPPRLPRPRPRPVRFPRP, 0.632.
As for RRIRFRPPRLPRPRPRPHRYPRP, the figure is -0.402; as for RRIRVRPPRLPRPRPRPEHYPRP, 0.0358; as for RRIRLRPPRLPRPRPRPDWRPRP, 0.0715.
As for RRIRARPPRLPRPRPRPSSSPRP, the figure is 0.185; as for RRIRYRPPRLPRPRPRPRTYPRP, -0.71.
RRIRWRPPRLPRPRPRPSAGPRP: the “shrunken log2 fold change” value was 0.231.
For RRIRVRPPRLPRPRPRPLRGPRP the value was 0.764.
Take RRIRSRPPRLPRPRPRPKVFPRP: the “shrunken log2 fold change” value is -0.063.
As to RRIRIRPPRLPRPRPRPWYKPRP, the “shrunken log2 fold change” value was -0.689.
Take RRIRNRPPRLPRPRPRPLKHPRP: the “shrunken log2 fold change” value was -0.239.
Consider RRIRGRPPRLPRPRPRPTFVPRP, for which the “shrunken log2 fold change” value came out at 0.782.
For the sequence RRIRKRPPRLPRPRPRPVTDPRP, the “shrunken log2 fold change” value was -0.0127.
On to RRIRDRPPRLPRPRPRPCRWPRP, for which the “shrunken log2 fold change” value is -0.537.
As for RRIRCRPPRLPRPRPRPCPLPRP, the figure is -0.433.
As for RRIRFRPPRLPRPRPRPDPLPRP, the figure is 0.165; as for RRIRERPPRLPRPRPRPEHFPRP, -0.00973.
With RRIRPRPPRLPRPRPRPYRWPRP, the “shrunken log2 fold change” value amounted to 0.087.
For RRIRARPPRLPRPRPRPNLQPRP, the “shrunken log2 fold change” value is 0.177.
As for RRIRDRPPRLPRPRPRPEHRPRP, the figure is -0.01; as for RRIRLRPPRLPRPRPRPNYNPRP, -0.74; as for RRIRDRPPRLPRPRPRPQSQPRP, 0.112.
For RRIRARPPRLPRPRPRPMNHPRP the value was -0.151.
For RRIRFRPPRLPRPRPRPNQMPRP the value was -0.167; for RRIRSRPPRLPRPRPRPRGPPRP, 0.568.
In the case of RRIRQRPPRLPRPRPRPAKPPRP, the “shrunken log2 fold change” value is -0.0548.
For RRIRERPPRLPRPRPRPNKFPRP the value was -0.143; for RRIRCRPPRLPRPRPRPCPMPRP, -8.18e-06; for RRIRERPPRLPRPRPRPQTSPRP, -0.37.
As for RRIRIRPPRLPRPRPRPYNCPRP, the figure is -0.411.
For the sequence RRIRYRPPRLPRPRPRPFDSPRP, the “shrunken log2 fold change” value is -0.0136.
For the sequence RRIRKRPPRLPRPRPRPKQHPRP, the “shrunken log2 fold change” value was determined as 0.657.
For RRIRCRPPRLPRPRPRPGPGPRP the value was 0.709; for RRIRRRPPRLPRPRPRPWLGPRP, 0.353.
As for RRIRNRPPRLPRPRPRPVDHPRP, the figure is -0.01; as for RRIRIRPPRLPRPRPRPQEAPRP, 0.0332; as for RRIRIRPPRLPRPRPRPARCPRP, 0.0563.
RRIRNRPPRLPRPRPRPNESPRP: the “shrunken log2 fold change” value is -0.121.
Consider RRIRARPPRLPRPRPRPTYFPRP, for which the “shrunken log2 fold change” value amounted to 0.161.
As to RRIRSRPPRLPRPRPRPWLQPRP, the “shrunken log2 fold change” value was -0.0695.
Take RRIRWRPPRLPRPRPRPGVIPRP: the “shrunken log2 fold change” value is 0.0325.
As for RRIRSRPPRLPRPRPRPAKRPRP, the figure is 0.214; as for RRIRMRPPRLPRPRPRPYTGPRP, 0.042.
As for RRIRWRPPRLPRPRPRPCLTPRP, the figure is -0.00541.
For RRIRMRPPRLPRPRPRPCARPRP the value was 0.343; for RRIRHRPPRLPRPRPRPSNGPRP, -0.605; for RRIRTRPPRLPRPRPRPSCAPRP, -0.127.
For RRIRLRPPRLPRPRPRPAGIPRP, the “shrunken log2 fold change” value was -0.043.
Consider RRIRYRPPRLPRPRPRPELLPRP, for which the “shrunken log2 fold change” value was -0.157.
For RRIRRRPPRLPRPRPRPTYHPRP the value was 0.648; for RRIRYRPPRLPRPRPRPRVYPRP, -0.847; for RRIRNRPPRLPRPRPRPVDCPRP, -0.209.
For RRIRDRPPRLPRPRPRPPHLPRP the value was 0.0118; for RRIRMRPPRLPRPRPRPYKDPRP, -0.947.
RRIRIRPPRLPRPRPRPEGQPRP: the “shrunken log2 fold change” value was -0.0492.
RRIRWRPPRLPRPRPRPMNKPRP: the “shrunken log2 fold change” value was -0.267.
As for RRIRHRPPRLPRPRPRPQFHPRP, the figure is -0.153; as for RRIRGRPPRLPRPRPRPCQWPRP, 0.0251.
As for RRIRDRPPRLPRPRPRPCYNPRP, the figure is -0.271; as for RRIRTRPPRLPRPRPRPLHNPRP, -0.557; as for RRIRPRPPRLPRPRPRPCMVPRP, -0.423.
On to RRIRDRPPRLPRPRPRPNTMPRP, for which the “shrunken log2 fold change” value was -0.167.
As for RRIRMRPPRLPRPRPRPGMHPRP, the figure is 0.186.
As for RRIRKRPPRLPRPRPRPTLIPRP, the figure is -0.0752; as for RRIRRRPPRLPRPRPRPECKPRP, -0.0282.
As for RRIRYRPPRLPRPRPRPDNGPRP, the figure is -0.00114.
With RRIRRRPPRLPRPRPRPEISPRP, the “shrunken log2 fold change” value is 0.17.
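Note: peptides expressed intracellularly from a pBAD plasmid library in pooled LB shake-flask culture, induced with 0.3% L-arabinose, DNA abundance read by NGS, three biological replicates, DESeq2 with apeglm shrinkage.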
